{"source": "patent US8003357B2", "about": "“Acidophilic enzymes” (Helmholtz-Zentrum Fuer Infektionsforschung GmbH, priority 2005, dated 2011)", "molecules": {"B1": {"name": "αGluFA: acidic glucosidase from Ferroplasma acidiphilum, 531 amino acids, Seq ID No. 11 (protein, listed as Ferroplasma acidiphilum)", "chain": "INSLYILNHKVIIAVAVSAILIAMVFAGANIPYPGYNPTDHLISGKHPISNVSEVPKNFTLSGNVSNSNNNLPLSGTITVSNSTMSRTFNTSSNGSYNITLPQGNYSISSSIPGFQNYSSTINLDSNKTQNISTPPATTIGNGINQVPGSTNVSTLVPYLNNSIMSGGLNTDNITGTFDKNITIDLGKKLNNTQFVVLMKLDGAVYSYNWVTNGSGMAKLFLKYSGNYTMSAYTLYYNSSVIHYNTANNDTARFNMTERITFISSVILQSAVPLHDNSSVANSTLTVKGGVFSVPSLSVNSNLTGTYYKYEVPVGFYNFAYSNAHYVSKNFGVDVTGNSTVNKTIDPYLISINIRNNTGNTFNYTLGSTFYSGNGIHMATSGITTLLVFHDGKIVYDNTILLTSANPYYQLNLTISNKNLTFNGIETDSTNLSIVYSGNVTSNFYIASLEFENFSTSATNGMIIISGAASGSYPLDSGLYTYNMSQSLPTSAGNLTIKLVYDNDSKVSTDGRMTVEVYGYNISTLGNYITE", "modifications": "CDS (1)..(1596) alpha glu FA, in Figure 11 designated sequence 5a"}, "B2": {"name": "EstFA: acidophilic, Fe2+ dependent esterase from Ferroplasma acidiphilum, 308 amino acids, Seq ID No. 6 (protein, listed as Ferroplasma acidiphilum)", "chain": "B1 chain", "modifications": "PEPTIDE (1)..(531) alpha Glu FA"}}, "format_in_all_cases": "biochemical", "key": {"[1]": {"experiment": "Transglucosylation of maltose catalyzed by αGluFA", "from_the_text": "αGluFA is also suitable for the transfer of glucosyl groups from maltose to selectively produce a maltotriose. […] The reaction was followed by HPLC measurements."}, "[2]": {"experiment": "pH and temperature dependence, stability and activity of recombinant acidic enzymes", "conditions": "for enzymatic stability at elevated temperatures: FIG. 2, LigFA pH 3.0, EstFA and αGluFA pH 2.0 at 40 and 50° C., GlyFA1 and GlyFA2 pH 4.0 at 40° C.; for Optimum temperature: measured at optimum pH", "method": "The acidic enzymes according to the invention were expressed in E. coli using the genomiccoding sequence for the respective enzyme from Ferroplasma acidiphilum, which are described in detail below. For enzymatic conversions, reaction conditions were in 100 mM sodium acetate buffer, 100 mM citrate buffer, 100 mM HEPES buffer for 2 minutes at 30° C., using p-nitrophenol propionate as the substrate for esterase, starch in the case of glycosidases, and HindIII digested λ DNA for ligase.\nThe activity was assayed using p-nitrophenol propionate as a substrate for esterase, starch for αGluFA and GlyFA1, GlyFA2, and HindIII digested λ DNA for LigFA.\nThe acidic enzymes according to the invention in vitro show similar elevated reaction temperatures. Substrates were as described for FIG. 2 above.\nAn overview of catalytic and molecular properties of acidic enzymes that were heterologously expressed in E. coli is given in the following Table III: […]"}, "[3]": {"experiment": "Fe2+ content (ICP-MS) and Fe2+ dependence of activity, dialysis against EDTA", "conditions": "relative to wild type = 100; after dialysis against 1 mM EDTA; 100 mM sodium citrate, 10 mM FeCl2", "method": "The UV-VIS absorption spectra of purified acidic enzymes are shown in FIG. 4, wherein the uninterrupted lines refer to Fe^2+ containing enzymes and the interrupted lines refer to enzymes after dialysis against EDTA containing buffer. The λ-max values found at ca. 572 nm correlate with the Fe^2+ content, i.e. disappear after incubation with EDTA or DTT for 24 h. ICP-MS analysis confirmed the presence of 0.82±0.10 mol Fe in EstFA, 0.34±0.08 mol Fe in αGluFA, […] and 0.63±0.09 mol Fe in LigFA.\nIn FIG. 5, relative activities of acidic enzymes with varying content of Fe^2+ are shown. For analysis, purified enzymes were incubated in 1 mM EDTA. At time intervals indicated, two aliquots were removed, one was used for hydrolysis of respective substrates, the other for ICP-MS analysis of Fe. For relative activities, activities before incubation with EDTA were used as 100% values.\nWhen further investigating the dependence of the acidic enzymes according to the invention on Fe^2+, relative activity for EstFA, αGluFA and LigFA were investigated for their natural Fe^2+ content, e.g. wild-type, which was set to 100%, in comparison to the activity after dialysis against a 1 mM EDTA containing buffer."}, "[4]": {"conditions": "measured at optimum temperature"}}}
{"molecule": "B1", "values": [{"measurement": "percentage of transglucosylated maltose", "setting": "[1]; over the course of the reaction", "result": "more than 70%"}, {"measurement": "product selectivity of synthesis", "setting": "[1]; pH 3.0, up to 300 g/L maltotriose", "result": "selectively synthesizes maltotriose"}, {"measurement": "maltose", "setting": "[1]; reaction time 5", "result": 456, "unit": "g/L"}, {"measurement": "maltotriose", "setting": "[1]; reaction time 5", "result": 88, "unit": "g/L"}, {"measurement": "percentage of maltose transglycosylated", "setting": "[1]; reaction time 5", "result": 70.3, "unit": "%"}, {"measurement": "glucose", "setting": "[1]; reaction time 5, 600 g/L maltose, pH 3.0, 50° C.", "result": 59, "unit": "g/L"}, {"measurement": "glucose", "setting": "[1]; reaction time 10", "result": 76, "unit": "g/L"}, {"measurement": "maltose", "setting": "[1]; reaction time 10", "result": 402, "unit": "g/L"}, {"measurement": "maltotriose", "setting": "[1]; reaction time 10", "result": 122, "unit": "g/L"}, {"measurement": "percentage of maltose transglycosylated", "setting": "[1]; reaction time 10", "result": 72.7, "unit": "%"}, {"measurement": "glucose", "setting": "[1]; reaction time 20", "result": 112, "unit": "g/L"}, {"measurement": "maltose", "setting": "[1]; reaction time 20", "result": 302, "unit": "g/L"}, {"measurement": "maltotriose", "setting": "[1]; reaction time 20", "result": 186, "unit": "g/L"}, {"measurement": "percentage of maltose transglycosylated", "setting": "[1]; reaction time 20", "result": 74.5, "unit": "%"}, {"measurement": "glucose", "setting": "[1]; reaction time 30", "result": 153, "unit": "g/L"}, {"measurement": "maltose", "setting": "[1]; reaction time 30", "result": 199, "unit": "g/L"}, {"measurement": "maltotriose", "setting": "[1]; reaction time 30", "result": 248, "unit": "g/L"}, {"measurement": "percentage of maltose transglycosylated", "setting": "[1]; reaction time 30", "result": 73.3, "unit": "%"}, {"measurement": "glucose", "setting": "[1]; reaction time 60", "result": 165, "unit": "g/L"}, {"measurement": "maltose", "setting": "[1]; reaction time 60", "result": 159, "unit": "g/L"}, {"measurement": "maltotriose", "setting": "[1]; reaction time 60", "result": 276, "unit": "g/L"}, {"measurement": "percentage of maltose transglycosylated", "setting": "[1]; reaction time 60", "result": 74.7, "unit": "%"}, {"measurement": "glucose", "setting": "[1]; reaction time 180", "result": 185, "unit": "g/L"}, {"measurement": "maltose", "setting": "[1]; reaction time 180", "result": 111, "unit": "g/L"}, {"measurement": "maltotriose", "setting": "[1]; reaction time 180", "result": 304, "unit": "g/L"}, {"measurement": "percentage of maltose transglycosylated", "setting": "[1]; reaction time 180", "result": 74.0, "unit": "%"}, {"measurement": "enzymatic stability at elevated temperatures", "setting": "[2]", "result": "good stability"}, {"measurement": "enzymatic activity retained", "setting": "[2]; at 65° C.", "result": "approximately 50%"}, {"measurement": "temperature up to which the enzyme was stable", "setting": "[2]; for 60 minutes", "result": "up to 60 °C"}, {"measurement": "Optimum pH", "setting": "[2]; in the presence of Fe2+", "result": 2.0}, {"measurement": "Optimum temperature", "setting": "[2]", "result": 60, "unit": "°C"}, {"measurement": "Optimum pH", "setting": "[2]; [4]", "result": "2.5-3.0"}, {"measurement": "original activity retained", "setting": "[2]; pH 1.5 to 3.9, incubation at 20° C. over 24 hours", "result": "more than 80%"}, {"measurement": "activity, +EDTA", "setting": "[3]", "result": 5.40, "unit": "%"}]}
{"molecule": "B2", "values": [{"measurement": "stability of purified enzyme", "setting": "[2]; 20 mM citrate buffer, pH 1.5, room temperature", "result": "stable"}, {"measurement": "enzymatic stability at elevated temperatures", "setting": "[2]", "result": "good stability"}, {"measurement": "Optimum temperature", "setting": "[2]", "result": 50, "unit": "°C"}, {"measurement": "Optimum pH", "setting": "[2]; [4]", "result": "2.0-3.5"}, {"measurement": "stability at pH values above 5.0", "setting": "[2]; pH above 5.0", "result": "rapidly inactivated"}, {"measurement": "activity, +EDTA", "setting": "[3]", "result": 0.30, "unit": "%"}]}
